Patent US5621079A, “Neuropeptide Y receptor” (Merck & Co., Inc., priority 1995, dated 1997)

Molecular target: T1, murine NPY Yx receptor (Mus musculus, UniProt Q61212)
T1 construct: identified a 371 amino acid open reading frame; expressed in transfected cells; host or cells: COS-7 cells, transient (pcDNA3 vector pVE2863), membranes
T1 sequence (Q61212 1-371): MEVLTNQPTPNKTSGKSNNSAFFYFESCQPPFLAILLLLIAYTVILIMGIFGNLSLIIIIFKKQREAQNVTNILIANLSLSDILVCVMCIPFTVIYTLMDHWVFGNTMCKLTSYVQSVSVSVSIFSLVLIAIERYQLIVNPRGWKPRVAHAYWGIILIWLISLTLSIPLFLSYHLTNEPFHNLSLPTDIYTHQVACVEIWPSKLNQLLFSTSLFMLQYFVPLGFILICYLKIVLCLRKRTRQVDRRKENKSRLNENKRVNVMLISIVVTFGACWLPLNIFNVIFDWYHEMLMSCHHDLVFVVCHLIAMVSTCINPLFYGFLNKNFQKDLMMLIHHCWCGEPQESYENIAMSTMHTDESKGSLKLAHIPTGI
Experiment: 125I-PYY competition binding to membranes of COS-7 cells transfected with the murine NPY Yx receptor
Details: COS-7 membranes (50 μg protein), 125I-PYY 90 pM, 2 hours at room temperature; read-out: IC50 (concentration of peptide causing 50% inhibition of 125I-PYY binding)
Description: Using electroporation, COS-7 cells were transfected with the pcDNA3 expression vector containing the genomic DNA for the murine NPY Yx receptor (pVE2863). Two days post transfection, cells were dissociated with enzyme-free dissociation buffer, centrifuged at 1000 rpm for 10 minutes at 4° C., and resuspended in 10 mM Tris, pH 7.4 containing […] (phenylmethylsulfonyl fluoride), 10 μM phosphoramidon, and 40 μg/ml bacitracin. The cell suspension was homogenized with a glass homogenizer, and centrifuged at 2200 rpm for 10 minutes at 4° C. to remove cell debris. The plasma membrane fraction was recovered by centrifuging the supernatant at 18,000 rpm in a Sorvall SS-34 rotor for 15 minutes at 4° C. The membrane pellet was resuspended in the Tris/PMSF/phosphoramidon/bacitracin buffer by trituration 5 times using a 25 g needle and syringe. The membranes were stored frozen at -80° C. until use.
After 2 hours at room temperature, the incubation was filtered over GF/C filters, and the radioactivity bound to the filters was quantified with a Packard gamma counter.

| Substance | IC50 [nM] |
| --- | --- |
| NPY2-36 [NPY(2-36)] | 16 |
| NPY13-36 [NPY(13-36)] | 134 |
| Neuropeptide Y [NPY] | 6 |
| [Leu31, Pro34]NPY [[Leu^31, Pro^34]NPY] | 9 |
